Drawing on article PMC9934533, this text covers stoichiometry N for one substance.

The assay concerns the target hybrid aspen (poplar) cellulose synthase isoform-8 (CesA8) (hybrid aspen (poplar)). Kind of assay: cryo-EM structure.

For “hybrid aspen (poplar) cellulose synthase isoform-8 (CesA8) (enzyme)”, the stoichiometry N is 3.

A word on the stoichiometry N: it is the number of molecules, sites or subunits per partner or assembly.
